This note sets out measurements from patent US5843750A, “Sorbitol kinase, process for producing the same, and substantially pure microorganism” (priority 1994, dated 1998).

Data set [1] is described as follows: Optimum pH/temperature, pH stability and heat stability of sorbitol kinase. It counts as physicochemical, Erwinia sp. SK-472-20. The protocol:
One milliliter of a reaction mixture consisting of 0.2M Tris-HCl buffer solution (pH 8.5) 0.2 ml, 0.1M ATP 0.02 ml, 0.1M MgCl2 0.02 ml, 100 U/ml sorbitol-6-phosphate dehydrogenase (refer to referential example) 0.05 ml, 10 mM NAD 0.1 ml, 100 U/ml diaphorase (Asahi Chemical Ind. Co.) 0.05 ml, 0.25% NTB 0.1 ml, 1M sorbitol 0.1 ml, 10% Triton X-100 0.01 ml and distilled water 0.3 ml was pre-heated at 37° C. for 1 minute, and the enzyme solution 20 μl was added thereto, then the mixture was incubated for 10 minutes.
Reaction was terminated by adding 0.1N HCl 2 ml and optical density of the mixture was measured using 1.0 cm cell at 550 nm within 5 minutes (As). Also optical density of distilled water 20 μl in place of the enzyme solution was measured in the same manner as above as a blank test (Ab). Enzymatic activity is determined by difference in the absorption between the optical density of the enzyme solution (As) and the blank test (Ab), i.e. (As-Ab). A unit of enzyme activity is defined as an amount of enzyme which generate 1 μm of reduced NAD in one minutes at 37° C. and calculated by the following equation.
Optimum pH is measured by the above enzyme assay method. In FIG. 1, 100 mM phosphate buffer is used for pH 6.0-8.0 (-.largecircle.-); 100 mM Tris-HCl buffer for pH 7.0-9.0 (-.circle-solid.-); and 100 mM glycine-sodium hydroxide buffer for pH 9.0-10.5 (-.quadrature.-). Optimum pH is 8.5-9.5.
100 mM buffer solutions containing sorbitol kinase 0.5 U/ml were treated at 60° C. for 15 minutes, and remaining activity was measured by the above enzyme assay method. In FIG. 2, 100 mM acetate buffer is used for pH 4.5-6.0 (-.largecircle.-); 100 mM phosphate buffer for pH 6.0-8.0 (-.circle-solid.-); 100 mM Tris-HCl buffer for pH 7.0-8.5 (-.quadrature.-); and 100 mM glycine-sodium hydroxide buffer for pH 9.0-10.5 (-.box-solid.-). Most preferable stability is observed at pH 6.5-10.0.
Optimum temperature of the enzyme was measured by changing temperature range at 37° C.-60° C. according to the above assay method. Result is shown in FIG. 3, in which optimum temperature of the present enzyme is approx. 50° C.
100 mM Tris-HCl buffer solution (pH 8.5) containing sorbitol kinase 0.5 U/ml was treated at various temperatures for 15 minutes, and remaining activity was measured by the above enzyme assay method. Results are shown in FIG. 4 in which the enzyme is stable at least up to 60° C.

The nature of data set [2]: Isoelectric point of sorbitol kinase (electrophoresis using carrier ampholytes). It counts as physicochemical, Erwinia sp. SK-472-20. An excerpt:
4.8±0.5 (electrophoresis using carrier ampholytes)

Data set [3] can be described thus: Physico-chemical properties of sorbitol kinase produced by the transformant. The format is physicochemical, Erwinia sp. SK-472-20 gene expressed in E.coli. The settings on record: enzyme produced by transformant.

A value given as a limit tells only on which side of the number the result lay.

B1: sorbitol kinase: ATP-utilizing sorbitol kinase of Erwinia sp. SK-472-20, stable up to 60° C., amino acids 1 to 313 of SEQ ID NO: 1; also produced by E.coli transformant (protein)
chain: MRIGIDLGGTKTEVIALSEQGEQLFRHRLPTPRDDYHQTIETIARLVDMAEQATGQTGTVGMGIPGSISPYTGVVKNANSTWLNGQPFDKDLSQRLNREVRLANDANCLAVSEAIDGAAAGAQTVFAVIIGTGCGAGVALGGRAHIGGNGTAGEWGHNPLPWMDEDELKYRAEVPCYCGKQGCIETFISGTGFATDYHRLSGQPLKGNEIMRRVGEHDPVAELALSRYEMRLAKSLAHVVNILDPDVIVLGGGMSNVDRLYATVPNLVKQWVFGGECETPIRKRCTGTPAACAAPRGSGRYSHSPSPYVRGAG
Take B1: the “Heat stability (stable up to)” value in data set [1] (100 mM Tris-HCl pH 8.5, 0.5 U/ml, 15 minutes, remaining activity, FIG. 4) was not below 60 °C; in data set [3], “up to 60 °C”. Further, the “Optimum pH” value in data set [1] (100 mM phosphate, Tris-HCl, glycine-sodium hydroxide buffers, FIG. 1) is given as 8.5-9.5; in data set [3] it was 8.5-9.5. In addition, the “pH stability (most preferable stability)” value in data set [1] (0.5 U/ml in 100 mM buffers, 60° C. for 15 minutes, remaining activity, FIG. 2) is recorded as 6.5-10.0. Besides, in data set [1] (range 37° C.-60° C., FIG. 3), the Optimum temperature result is “approx. 50 °C”. Besides, the Isoelectric point in data set [2] came out at 4.8±0.5; in data set [3], 4.80±0.5. In addition, the pH stability in data set [3] is on record as 6.5-10.0.
